The values that follow come from the nanobody polyreactivity screen of Harvey et al. (2022).

A short description of this data set: yeast display, Sf9 membrane polyspecificity reagent, FACS + sequencing; frameworks hold sequencing errors. The method, boiled down:
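Synthetic nanobody libraries on Saccharomyces cerevisiae BJ5465 were galactose-induced for 36–48 hours, stained 1 hour at 4 °C with 10% biotinylated, detergent-solubilized Sf9 membrane reagent and enriched on streptavidin microbeads. FACS then separated cells into low and high (top ~1%) gates by anti-HA (expression) and streptavidin (reagent binding) fluorescence. Genes were colony-PCR amplified, MiSeq 2 × 250 sequenced and CDR-length filtered. A clone's polyreactivity label is that of its gate of origin.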
Consider “QVQLVESGGGLVQAGVSLRLICAASGFIFPTKVMGWYRQAPATEREFVASITWRGGGTFYADSVKGRFTISRDNAKNTVYLQMNRLKPEDTAVYYCAAGRSWSSFWKYDYWGQGTQVTVSS”, for which the “polyreactivity (PSR sort gate)” value is on record as “low polyreactivity”. With “QVQLVESGGGLVQAGVSLRLICAASGSIFITNFMGWYRQAPGKERELVAVISASGGSTYYADSVKGRFTISRDNAKNNVYLQMNSMKPEDTAVYYCARTQRRYSYGQMGYWGQGTQVTVSS” the entry was “high polyreactivity”; with “QVQLVESGGGLVQAGVSLRLRCAASASILSYYAMGWYRHAPGKERELVAAISRSGCTTYYADSVKGRFTISRDYAKNTVYLQMNSLIPEDTAVYYCAAVDRYYAYRDYYYWGQGTQVTVSS”, “high polyreactivity”; with “QVQLVESGGGLVQAGVSLRLSCAASGFIFRPYTMGWYRLAPGKERELVAAISRSGDSTYYADSVKGRFTISRDNAKNTVYLQMNSLKPEDTAVYYCAAYYNGRVGPYYYWGQGTQVTVSS”, “high polyreactivity”. Regarding “QVQLVESGGGLVQAGVSLRLSCAASGFNFVFYDMGWYRQAPGKERELVAGITRNDGSTYYADSVKGRFKISRDNAKNTVYLQMNSLKPEDTAVYYCAADRVRRNDKLAYDYWGQGTQVTVSS”, the “polyreactivity (PSR sort gate)” value is recorded as “low polyreactivity”. As to “QVQLVESGGGLVQAGVSLRLSCAASGFTFQAYAMGWYRQAPGKERELVAAIRSRGDSTYYADSVKGRFTISRDNSKNTVYLQMNSLKPEDTAVYYCNVLGYSYWGQGTQVTVSS”, the “polyreactivity (PSR sort gate)” value is listed as “high polyreactivity”. With “QVQLVESGGGLVQAGVSLRLSCAASGFTFYYYAMVRNRQAPGKERELVAAITGSGGGTYYADSVKGRFTISRDYAKNTVYLQKNSLKPEDTAVYYCNALYVSTSDFVYWGQGTQVTVSS”, the “polyreactivity (PSR sort gate)” value is “high polyreactivity”. As to “QVQLVESGGGLVQAGVSLRLSCAASGGILYWYAMGWSRQAPGKERELVAAIDWTGGSTYYADSVKGRFTISRDNAKNTVYLQMNSLKPEDTAVYYCAADSYWGSGVVPGYDYWGQGTQVTVSS”, the “polyreactivity (PSR sort gate)” value is “low polyreactivity”.

With “QVQLVESGGGLVQAGVSLRLSCAASGITFARYTMGWYRQAPGKERELVAAINTSGGSTRYADSVKGRFTISRDNAKNTVYLQMNSLKPEDTAVYYCAARRKHSLFGKRYYWGQGTQVTVSS”, the “polyreactivity (PSR sort gate)” value is given as “high polyreactivity”. For “QVQLVESGGGLVQAGVSLRLSCAASGITLYRYVMGWNRQAPGKERELVADISGRGTSTYYADSVKGRFTSSRDYAKNTVYLQMYRLKPEATAVYYCNAEYTKTGALGIPYTYYYAEDYWGQGTQVTVSS”, the “polyreactivity (PSR sort gate)” value is on record as “low polyreactivity”. Take “QVQLVESGGGLVQAGVSLRLSCAASGNIFEQYAMGSDRQAPGKERELVARISWRGGSTYYADSVKGRFTISRDNAKNTVYLQLNSLKPEDTAVYYCNALEVVYFGYYPSDYWGQGTQVTVSS”: the “polyreactivity (PSR sort gate)” value is listed as “low polyreactivity”. With “QVQLVESGGGLVQAGVSLRLSCAASGRIFPYNAMGWDRQAPGKERELVAAIDWSGGRTYYADSVKGRFTISRDNAKNTDYLQMNSLKPEDTALYYCAAAYGGRLRYTAGYYWGQGTQVTVSS” the entry was “high polyreactivity”; with “QVQLVESGGGLVQAGVSLRLSCAASGRIKDNVMGWYRQAPGKERELVAAITRYAGRTYYAYSVKGRFTISRDNAKITVYLQMNSLKPVDTAVYYCAAQAERSGYEYWGLGTQVTVSS”, “low polyreactivity”.

As for “QVQLVESGGGLVQAGVSLRLSCAASGRTFIGNAMGWYRQAPGKEREFVAAISRRGGSTYYADSVKGRFTISRDNAKNTVYLQMNSLKPEDTAVYYCAAGQTTTGILTYYYWGQGTQVTVSS”, the “polyreactivity (PSR sort gate)” value was “high polyreactivity”. “QVQLVESGGGLVQAGVSLRLSCAASGSTFGANAMGWYRQAPGKEREFVAAISGSGTTTYYADSVKGRFTISRDNAKNTVYLQMNSLKPEDTAVYYCAKTRKAHWLEYWGQGTQVTVSS”: the “polyreactivity (PSR sort gate)” value was “low polyreactivity”.

Turning to “QVQLVESGGGLVQAGVSLRLSCAASGSTFVVNAMGWYRQAPGKERELVAAITQSGGSTFYADSVKGRFTISRDNAKNTVYLQMNSLKPEDTAVYYWGQGTQVTVSS”, the “polyreactivity (PSR sort gate)” value was “low polyreactivity”. As to “QVQLVESGGGLVQAGVSLRLSCAASMGWYRQAPGKERELVAAITRGGTTYYADSVQGRFTISRDNAKNTVYLQMNSLKPEDTAVYYGAKAGPGFLYDHWGQGTQVTVSS”, the “polyreactivity (PSR sort gate)” value is “high polyreactivity”.

Turning to “QVQLVESGGGLVQAGVSLRLSCAASVITFVYYTMGWYRQAPGKERELVAAISQSAVNTYYADSVKGRFTISRDNAKNTVYLQMNSLKPEVTAVYYCNARFRATFTSYGTDYRRRFDYWGQGTQVTVSS”, the “polyreactivity (PSR sort gate)” value was “high polyreactivity”. As for “QVQLVESGGGLVQAGVSLRLSCAASVSIFSGNTMGWYRQAPGKERELVAAIRWRGGTYYADSVKGRFTISRDNAKNTVYLQMNSLKPEDPAVYYCATSVKPSYDYWGQGTQVTVSS”, the “polyreactivity (PSR sort gate)” value is “low polyreactivity”. With “QVQLVESGGGLVQAGVSLRLSSAASGSTFLYYAMGWYRQAPGKESEMVAAIDWSDTSTYFADSVKGRFTISRDIAKNTVYLQMNSLKTEDTAVYYCIREATYVYAAGYDYWGQGTQVTVSS”, the “polyreactivity (PSR sort gate)” value is recorded as “low polyreactivity”. On to “QVQLVESGGGLVQAGVSLRLSSAASGSTLGYNVMGWYRQAPGKERELVAAISGDGSTNYADSVKGRFTISRDNAKNTVYLQMNSLKPEDTAVFYCNAPFWGYRTSFSYPVVQRFDYWGQGTQVTVSS”, for which the “polyreactivity (PSR sort gate)” value is “low polyreactivity”. On to “QVQLVESGGGLVQAGVSLSLSCADSGSFSDFYAMGWYRQAPGKERELVAAITSSGGSTYYADSVKGRFTISREIAKNTGYLQMNSLKPEDTAVYYCNRYSNLGYNYWGQGTQVSVSS”, for which the “polyreactivity (PSR sort gate)” value is listed as “high polyreactivity”. Regarding “QVQLVESGGGLVQAPGSLRLSSAASGRIFNQYGMGWYRQAPGKERELVAAIRSGDSTNYADSVKGRFTISRDNAKNTVYLQMNSLKQEDSAVYYCARDRPGDYAGYYYWGKGTQVTVSS”, the “polyreactivity (PSR sort gate)” value is listed as “low polyreactivity”.

Take “QVQLVESGGGLVQARASLRLSCAASGNTIGYYAMGWYRQAHGKERELVAAISKRGGSTRYADSVKGRFTISRDNAKNTVYLQMNSLKPEDTAVYYCNAEGFGSLRYSYCNSFDYWGQGTQVTVSS”: the “polyreactivity (PSR sort gate)” value is “high polyreactivity”. As to “QVQLVESGGGLVQARGSHRLSCAASGSIFVINAMGWYRQAPGKERELVAAISYSGTGTYFADSVKGRFTISRDNAKNTVYLQMNSLKPEDTAVYYCAADYYYRYRIYDYWGQGTQVTVSS”, the “polyreactivity (PSR sort gate)” value was “low polyreactivity”. On to “QVQLVESGGGLVQARGSLRLICAASGRTINGYVMGWYRPAPGKEREFVAVINWSGGNTYYADSVKGRFTISRDNAKNTLYLQMNSLKPEDTAVYDCAARRVRSYAYDYWGQGTEVTVSS”, for which the “polyreactivity (PSR sort gate)” value is reported as “high polyreactivity”. Take “QVQLVESGGGLVQARGSLRLNSAASGRTFYQYVMGWYRQAPWKERELVAAIRSGGNTYYADSEKGRITISRDNAKYTVYLQMNSLKPEDTAVYYCAVQRGYYRFRLGLYCYDYWGQGTQVTVSS”: the “polyreactivity (PSR sort gate)” value is given as “high polyreactivity”. Take “QVQLVESGGGLVQARGSLRLSCAASGFTSLWNGMGLSSQAPGKERELVAAITSDSSTYYADSVKGRFTISRDNAKNTVYLQMNSLKPEDTAVYYCAKYFVYVGYGRYDYWGQGTEVTVSS”: the “polyreactivity (PSR sort gate)” value is given as “low polyreactivity”. As for “QVQLVESGGGLVQARGSLRLSCAASGIIFAFYAMGWYRQPPGKERELVAGITSGGDTYYADSVKGRFTISRDNAKKTVYLQMNRLKPEDTAVYYCAAVVQYPYRAGWRYWYATNFDYWGQGTQVTVSS”, the entry is “high polyreactivity”; as for “QVQLVESGGGLVQARGSLRLSCAASGIIFYPNAMGWYRQAPGKERELVASIRSGGITTYADSVKGRFTISRDNAKNTVYLQMNSLKPEDTAVYDCATRSYYRYATFAYYYWGQGTQVTVSS”, “high polyreactivity”; as for “QVQLVESGGGLVQARGSLRLSCAASGINFYHYPMGWYRQATGKEMELVAAINWGGSRTYYADSVKGRFTISRDNAKNTVYLQMNSLKPEDTAVYYCAAVYVPYYWLGRSRGLDYWGQGTQVTVSS”, “high polyreactivity”.

With “QVQLVESGGGLVQARGSLRLSCAASGRIFGLYAMGWYRQAPGKERELVASINSRGGSTNYADSVKGRFTISRDNAKNTVYLQMTSLKPEDTAVYYCNARFVYAYQRYYWGQGTQVTVSS”, the “polyreactivity (PSR sort gate)” value is given as “high polyreactivity”. Regarding “QVQLVESGGGLVQARGSLRLSCAASGRIFNYNAMGWYRQAPGKERELVAAITSSGGSTYYADSVKGRFTISRDNAKNTVYLQMNSLKPEDTAVYYCNALITYSSDYWGQGTQVTVSS”, the “polyreactivity (PSR sort gate)” value is on record as “low polyreactivity”. For the sequence “QVQLVESGGGLVQARGSLRLSCAASGRTFFNNAMGWYRQAPGKERELVAGISVTTGSTYYADSVKGRFTISRDNAKNTVYLQMNSLKPEDTAVYYCAARRKQYYAAYRYYYWGQGTQVTVSS”, the “polyreactivity (PSR sort gate)” value was “high polyreactivity”.

For the sequence “QVQLVESGGGLVQARGSLRLSCAASGRTFTYNAMAWYRQAPGKERELVAAINSGGSTNYADSVKGRFTISRDNAKNTVYLQMNSLKPEDTAVYYCNAGFGFGSSRYGTRYYYWGQGSQVTVSS”, the “polyreactivity (PSR sort gate)” value is recorded as “low polyreactivity”. As for “QVQLVESGGGLVQARGSLRLSCAASGRTFYYYAMGWSRQAPGKERELVATISSGGSTSYADSVKGRFTISRDNAKNTVNLQMNSLKPEDTAVYYWNGRGRYLGTYHLGRLYNFWGQGTQVTVSS”, the “polyreactivity (PSR sort gate)” value was “high polyreactivity”.

Consider “QVQLVESGGGLVQARGSLRLSCAASGSIFPPYAMGWYRQAPGKERELVAAINSGGSTNYADSVKGRFTISRDNAKNTVYLQMNSLKAEDTAVYYCAAEVVYPVYEYDYWGQGTQVTVSS”, for which the “polyreactivity (PSR sort gate)” value is reported as “low polyreactivity”. “QVQLVESGGGLVQARGSLRLSCAASGSIFSYYARGLYRQAPGKESELVAAITRGGTTYYADSVKGRFTISRDNAKNSVYLQMNSLKPEDTAVYYCAVYYYSGTAGYRYGYWGQGSQVTVSS”: the “polyreactivity (PSR sort gate)” value was “high polyreactivity”. “QVQLVESGGGLVQARGSLRLSCAASGSTFDPYAMGWYRQAPGINYSGASTYYADSVKGRFTISRDNAKNTVYLQMNSLKPDDTAVYYCAAEFVAQMNYWGQGTQVNVSS”: the “polyreactivity (PSR sort gate)” value is on record as “low polyreactivity”. As to “QVQLVESGGGLVQARGSLRLSCAASGSTFEANSMGWYRQAPGKERELVAVLTWTGGSTYYADSVKGRFTISRDNAKNTVNLHMISLNPEDTAVEYCAADGVLPGRFFWPAHEYDYWGQGTQVTVSS”, the “polyreactivity (PSR sort gate)” value is recorded as “low polyreactivity”.

For the sequence “QVQLVESGGGLVQARGSLRLSCAASGSTFSYNDMGWYRQAPGKERDLVADINVSVGRTYYADSVKGRFTISRDNAKNTVFLQMNSLKPEDTAVYYCNATLYTITSYVYAYDYWGQGTQVTVSS”, the “polyreactivity (PSR sort gate)” value is reported as “low polyreactivity”.
